Consider 28 molecules from patent US20170305997A1 (Janssen / Centocor, published 2017).

Where a chain is given by its changes, count along the chain named. Numbers in names are those of the source.

First the molecules themselves.
B1: P114AR7P95-F10 (designed binder)
chain: LPAPKNLVVSRVTEDSARLSWTAPDAAFDSFWIRYFEFTTAGEAIVLTVPGSERSYDLTGLKPGTEYVVNIMGVKGGSISPPLSAIFTTHHHHHH
B2: P114AR5P74-A5 (designed binder)
chain: B1 chain with F36D, F38V, T39V, T40V, A41G, V68Y, M72L, P81V
B3: P114AR7P94-E5 (designed binder)
chain: B1 chain with T39L, T40G, A41S, V68A, S78R, I79V, P81V
B4: P114AR7P92-H5 (designed binder)
chain: B1 chain with F36L, T39L, T40L, A41G, N70Q, S78T, I79V
B5: P114AR7P95-G7 (designed binder)
chain: B1 chain with F38L, T39L, T40S, A41T
B6: P114AR7P93-D11 (designed binder)
chain: B1 chain with T39L, T40G, A41S, N70G, M72N, S78Y, P81Y
B7: P114AR7P94-A3 (designed binder)
chain: B1 chain with T39L, T40G, A41S, S78K
notes: also called P114AR7P95-A3; P114ARP94-A3
B8: P114AR7P95-D4 (designed binder)
chain: B1 chain with T39L, T40G, A41S, N70Q, M72L, S78Y, P81I
B9: P114AR7P92-F6 (designed binder)
chain: B1 chain with T39L, T40G, A41S, M72L, S78G, I79L, P81V
B10: P114AR7P93-H9 (designed binder)
chain: B1 chain with T39L, T40G, A41S, N70Q, M72I, S78H, P81L
B11: P114AR7P95-E3 (designed binder)
chain: B1 chain with T39L, T40G, A41S, N70Q, S78T, I79V
B12: P114AR7P93-G8 (designed binder)
chain: B1 chain with T39L, T40G, A41S, G60D, V68G, N70T, M72N, S78R, I79V, P81T
B13: P114AR7P95-H8 (designed binder)
chain: B1 chain with T39V, T40S, A41K
B14: P114AR7P92-G8 (designed binder)
chain: B1 chain with W32V, T39L, T40G, A41S, N70Q, M72L, S78Y, P81I
B15: ECB15 (designed binder, not shown: small tags and cut ends)
chain: MLPAPKNLVVSEVTEDSARLSWDDPWAFYESFLIQYQESEKVGEAIVLTVPGSERSYDLTGLKPGTEYTVSIYGVHNVYKDTNMRGLPLSAIFTTAPAPAPAPAPLPAPKNLVVSRVTEDSARLSWTAPDAAFDSFWIRYFEFLGSGEAIVLTVPGSERSYDLTGLKPGTEYVVNIMGVKGGKISPPLSAIFTT
B16: A3 K78S (designed binder)
chain: LPAPKNLVVSEVTEDSARLSWDDPWAFYESFLIQYQESEKVGEAIVLTVPGSERSYDLTGLKPGTEYTVSIYGVHNVYKDTNMRGLPLSAIFTTAPAPAPAPAPLPAPKNLVVSRVTEDSARLSWTAPDAAFDSFWIRYFEFLGSGEAIVLTVPGSERSYDLTGLKPGTEYVVNIMGVKGGSISPPLSAIFTT
B17: A3 P81S (designed binder)
chain: B16 chain with S182K, P185S
B18: A3 W32S (designed binder)
chain: B16 chain with W136S, S182K
B19: A3 F38S (designed binder)
chain: B16 chain with F142S, S182K
B20: A3 G40S (designed binder)
chain: B16 chain with G144S, S182K
B21: A3 L39S (designed binder)
chain: B16 chain with L143S, S182K
B22: A3 V68S (designed binder)
chain: B16 chain with V172S, S182K
B23: A3 F36S (designed binder)
chain: B16 chain with F140S, S182K
B24: A3 N70S (designed binder)
chain: B16 chain with N174S, S182K
B25: P114AR7P95-D3 (designed binder)
chain: B1 chain with T39L, T40G, A41S, P81Y
B26: P114AR7P95-B9 (designed binder)
chain: B1 chain with T39L, T40G, A41S, N70Q, M72L, P81V
B27: P114AR5P75-E9 (designed binder)
chain: LPAPKNLVVSRVTEDSARLSWTAPDAAFDSFFIRYDEFLRSGEAIVLTVPGSERSYDLTGLKPGTEYWVTILGVKGGLVSTPLSAIFTTHHHHHH
B28: P114AR7P92-F3 (designed binder)
chain: B1 chain with T39L, T40G, A41S, V68I, P81H

The target in the first test is T1, human c-Met on cells (human, UniProt P08581 25-1390).
T1 construct: Endogenous c-Met of human tumour cell lines; also called NCI-H441 cells; U87-MG
The experiment in a line: binding to NCI-H441 cells, anti-His fluorescence. On the procedure:
Purified FN3 domains (50 μL/well; 0 to 1000 nM) were added to the cells for 1 hour at 4° C. in duplicate plates. […] Cells were incubated with biotinylated-anti HIS antibody (diluted 1:160 in FACS stain buffer, 50 μL/well, R&D Systems, cat # BAM050) for 30 minutes at 4° C. […] Cells were washed three times with FACS stain buffer (150 μL/well) and left in FACS stain buffer (50 μL/well).
With B1, the EC50 was 4.4 nM.
Consider B2, for which the EC50 was 18.7 nM.
For B3, the midpoint of the response, the EC50, lay at 3.4 nM.
Turning to B4, a half-maximal effect (EC50) was put at 22 nM.
On to B5, for which the midpoint of the response, the EC50, lay at 11.3 nM.
Turning to B6, the EC50 came to 2.3 nM.
For B7, the EC50 stood at 1.4 nM.
On the same count and under the same terms, under B8 stands 1.4 nM; under B9, 4.9 nM.
In the case of B10, the midpoint of the response, the EC50, lay at 12.9 nM.
Same read-out and setting: the value for B11 was 3.2 nM; that for B12 was 3.8 nM; that for B13 was 4.1 nM.
Consider B14, for which the concentration for a half-maximal effect (EC50) stood at 5.9 nM.

In the next test the target is Recombinant human c-Met Fc chimera (human) (UniProt P08581). The experiment in a line: SPR, serine scan in the ECB15 context. A general note: Surface plasmon resonance follows binding to a sensor surface in real time, without labels.
For the molecule B15, the Fold Change of KD against the parent was 1 fold, the Kd amounted to 0.4 nM, the koff turned out to be 0.000133 s⁻¹ and the kon came out at 351000 M⁻¹ s⁻¹.
As for B16, the Fold Change of KD against the parent was 0.75 fold.
Take B17: the Fold Change of KD against the parent is 4.25 fold.
Regarding B18, the Fold Change of KD against the parent was found to be 74.5 fold.
On the same count and under the same terms, the value for B19 was 1790 fold; that for B20 was 4.25 fold.
Regarding B21, the Fold Change of KD against the parent was 6.75 fold.
Still for that read-out and setting: the value for B22 was 9 fold; that for B23 was 68 fold; that for B24 was 14.8 fold.

A further test has as its target T1, human c-Met on cells. The experiment in a line: cell-based or functional assay.
With B2, the “IC50 (nM) (ERK phosphorylation)” value was found to be 2370 nM.

The next test deals with T1, human c-Met on cells. The experiment in a line: cell-based or functional assay. The source holds these as a separate data set.
B2: the “inhibition of c-Met phosphorylation in NCI-H292 cells (IC50)” value amounted to 610 nM.

For the next test, the target named is T1, human c-Met on cells. The experiment in a line: cell-based or functional assay. This is another data set of the same source.
On to B25, for which the “Inhibition of Proliferation of U87-MG cells (IC50)” value (from here on “Inhibition … of U87-MG cells (IC50)”) turned out to be 1.7 nM and the “pMet inhibition in H441 cells (IC50)” value amounted to 4.6 nM.
For the molecule B26, the “Inhibition … of U87-MG cells (IC50)” value was 17.4 nM and the “pMet inhibition in H441 cells (IC50)” value was 9.8 nM.
The matching figures for B27: 1190 nM and 1.42 µM.
As for B1, the “Inhibition … of U87-MG cells (IC50)” value stood at 130 nM and the “pMet inhibition in H441 cells (IC50)” value was found to be 188 nM.
Take B2: the “Inhibition … of U87-MG cells (IC50)” value is 464 nM and the “pMet inhibition in H441 cells (IC50)” value worked out at 1.08 µM.
B3: the “Inhibition … of U87-MG cells (IC50)” value was 196 nM and the “pMet inhibition in H441 cells (IC50)” value worked out at 124 nM.
For the molecule B28, the “Inhibition … of U87-MG cells (IC50)” value was determined as 2.7 nM and the “pMet inhibition in H441 cells (IC50)” value was found to be 8.3 nM.
With B4, the “Inhibition … of U87-MG cells (IC50)” value amounted to 672 nM and the “pMet inhibition in H441 cells (IC50)” value is 766 nM.
B5: the “Inhibition … of U87-MG cells (IC50)” value was determined as 692 nM and the “pMet inhibition in H441 cells (IC50)” value was determined as 659 nM.
As for B6, the “Inhibition … of U87-MG cells (IC50)” value amounted to 14.4 nM and the “pMet inhibition in H441 cells (IC50)” value stood at 16 nM.
On to B7, for which the “Inhibition … of U87-MG cells (IC50)” value came to 9.3 nM and the “pMet inhibition in H441 cells (IC50)” value came out at 5 nM.
In the case of B8, the “Inhibition … of U87-MG cells (IC50)” value came out at 19.4 nM and the “pMet inhibition in H441 cells (IC50)” value came to 19.5 nM.
B9: the “Inhibition … of U87-MG cells (IC50)” value was 350 nM and the “pMet inhibition in H441 cells (IC50)” value turned out to be 165 nM.
With B10, the “Inhibition … of U87-MG cells (IC50)” value was determined as 270 nM and the “pMet inhibition in H441 cells (IC50)” value turned out to be 288 nM.
Take B11: the “Inhibition … of U87-MG cells (IC50)” value is 209 nM and the “pMet inhibition in H441 cells (IC50)” value was 205 nM.
As for B12, the “Inhibition … of U87-MG cells (IC50)” value came to 104 nM and the “pMet inhibition in H441 cells (IC50)” value is 460 nM.
For the molecule B13, the “Inhibition … of U87-MG cells (IC50)” value turned out to be 281 nM and the “pMet inhibition in H441 cells (IC50)” value amounted to 210 nM.
On to B14, for which the “Inhibition … of U87-MG cells (IC50)” value amounted to 124 nM and the “pMet inhibition in H441 cells (IC50)” value came to 155 nM.

What is called EC50 is the concentration giving half of the maximal effect. A lower EC50 goes with higher potency in that assay. As usually defined, the Kd is the equilibrium constant for the complex coming apart. Broadly, the koff is the first-order rate constant of dissociation. As a reminder, the kon is the rate constant with which the complex forms.
